Laboratory results taken from publication PMC10357585.

Substrate: Nc1nc2nc[nH]c2c(=O)[nH]1
Assay: Initial rate studies of TcHGXPRT, GMP biosynthesis
Type: biochemical, Trypanosoma cruzi
Conditions: other: variable substrate PRPP (1–78 μM) at fixed Gua levels; pH 8.3; 37.0 °C

B1: TcHGXPRT (Trypanosoma cruzi strain CL Brener) (protein)
chain: MISSQQAMVHVVSRNAEGVIVVDGKAYPMAEELVATESVIQRSIKAVAKQIADFYRPLSHRDTHGGGGVAPISDENPLIIISVLKGSYIFTADMVRYLGDYGLPHVVDFLRVASYRGTSSTNKMKLLAETQFKALRGKHVLILEDIVDSGKTLRYILDKVQREHQPATLKVCVLADKPGGRRVTMQPDFVCLTVPNKYVIGYGFEVNDRFRCFRHIFTLRPGEARRYPAHL
With B1 the Km was 28 ± 3 µM and the kcat was 0.44 ± 0.02 s⁻¹.
